This data set addresses RGG+CTD (Homo sapiens, UniProt Q06787 527-632). The data set is described as follows: EMSA; 10 mM Tris-HCl, 100 mM KCl, 5 mM Mg(OAc)2, pH 7.4, BSA, on ice 1 h; mRNA EMSA 0.4 pmol RNA + 20 pmol protein in 18 ul; oligo EMSA 0.2 (G17: 0.4) pmol RNA + 22 pmol protein in 7 ul; FP 5.5 pmol RNA + 300 pmol protein in 100 ul; EMSA gels 4% PAGE 0.5x TBM (2.5 mM MgCl2), RT. To be noted: protein: recombinant; tags: N-MBP, C-His6; label: 5' FAM; single strand. For orientation: In EMSA bound probe runs differently from free probe, usually more slowly.

The values below come from publication PMC9712993, “A noncanonical RNA-binding domain of the fragile X protein, FMRP, elicits translational repression independent of mRNA G-quadruplexes”.

On to UUUUUUUUUUUUUUUUUU (ssRNA) [(U)18], for which the binding result was “binds”.
